± gives the uncertainty stated by the source.
B1: Dystrobrevin alpha, residues 235 to 294; numbered along this chain, Q9Y4J8 (parent)
chain: ENVFHPVECSYCHSESMMGFRYRCQQCHNYQLCQDCFWRGHAGGSHSNQHQMKEYTSWKS
B2: Myocardin, residues 363 to 406; numbered along this chain, Q8IZQ8 (parent)
chain: KPGPLPPNLDDLKVSELRQQLRIRGLPVSGTKTALMDRLRPFQD

Variants of: B1
Test: abundance fitness (aPCA) (normalised: wild type 0, dead -1); higher = more abundant; growth selection in yeast, the domain comes from the species named
Details: Homo sapiens

Variant	abundance fitness
K59Q	0.126 ± 0.12
K59G	0.229 ± 0.08
K59A	0.082 ± 0.079
K59P	-0.034 ± 0.32
K59I	-0.392 ± 0.38
K59E	-0.127 ± 0.15
K59T	0.049 ± 0.083
K59D	0.356 ± 0.21
K59F	-0.142 ± 0.1
K59H	0.074 ± 0.1
K59L	-0.013 ± 0.085
K59C	-0.001 ± 0.086
K59Y	-0.099 ± 0.19
K59N	0.017 ± 0.3
K59V	-0.105 ± 0.11
W58V	0.224 ± 0.057

Variant	abundance fitness
W58Y	0.142 ± 0.26
W58T	0.258 ± 0.075
S60G	0.064 ± 0.48
S60I	-0.519 ± 0.14
S60D	0.335 ± 0.37
S60L	-0.196 ± 0.12
S60C	-0.276 ± 0.14
S60N	-0.216 ± 0.34
S60Q	0.216 ± 0.15
S60Y	-0.207 ± 0.14
S60V	0.034 ± 0.18
S60R	0.134 ± 0.15
S60A	-0.446 ± 0.24
S60F	0.02 ± 0.12
S60P	-0.065 ± 0.092
S60H	0.112 ± 0.26

Variants of: B2
Test: as above
Details: Homo sapiens

Variant	abundance fitness
G3Q	0.295 ± 0.099
G3V	0.102 ± 0.088
G3R	0.016 ± 0.063
G3S	-0.077 ± 0.088
G3D	-0.228 ± 0.12
G3W	-0.607 ± 0.083
G3C	-0.792 ± 0.23
G3Y	-0.067 ± 0.13
G3K	0.245 ± 0.12
G3T	0.099 ± 0.099
G3P	-0.265 ± 0.13
G3L	-0.025 ± 0.08
G3M	0.146 ± 0.076
G3H	0.059 ± 0.12
G3A	0.126 ± 0.088
P2Y	0.136 ± 0.35
P2K	0.284 ± 0.095
P2D	0.407 ± 0.18
P2Q	0.374 ± 0.073
P2M	0.387 ± 0.096
P2H	-0.093 ± 0.11
P2E	0.401 ± 0.094
P2W	-0.231 ± 0.093

Variant	abundance fitness
P2I	0.466 ± 0.087
P2F	0.328 ± 0.24
P2R	0.085 ± 0.071
P2V	0.39 ± 0.11
P2A	0.25 ± 0.061
P2N	-0.011 ± 0.13
P2T	-0.016 ± 0.13
P2S	0.184 ± 0.07
P6V	-0.133 ± 0.065
P6W	-0.484 ± 0.085
P6N	-0.34 ± 0.16
P6E	-0.131 ± 0.11
P6L	-0.26 ± 0.091
P6D	-0.195 ± 0.12
P6M	-0.135 ± 0.15
P6A	-0.02 ± 0.094
P6I	-0.361 ± 0.12
P6G	-0.153 ± 0.057
P6F	-0.356 ± 0.42
P6S	-0.095 ± 0.078
P6T	-0.197 ± 0.14
P6Q	-0.267 ± 0.073
P7D	0.052 ± 0.13

Variant	abundance fitness
P7E	0.253 ± 0.071
P7N	0.346 ± 0.14
P7K	0.464 ± 0.083
P7I	0.107 ± 0.16
P7L	-0.001 ± 0.07
P7M	0.239 ± 0.14
P7T	0.018 ± 0.15
P7S	-0.009 ± 0.087
P7V	0.227 ± 0.066
P7W	-0.414 ± 0.11
P7G	0.142 ± 0.057
P7A	0.12 ± 0.081
P7Y	-0.085 ± 0.31
P7Q	0.266 ± 0.073
P7H	0.188 ± 0.091
L9A	-0.876 ± 0.12
L9E	-0.807 ± 0.1
L9M	-0.543 ± 0.13
L9I	-0.289 ± 0.088
L9D	-0.873 ± 0.15
L9N	-0.871 ± 0.3
L9G	-0.491 ± 0.061
L9Q	-0.278 ± 0.083

Variant	abundance fitness
L9P	-0.513 ± 0.12
L9H	-0.542 ± 0.15
L9K	-0.741 ± 0.19
L9C	-0.371 ± 0.19
K1W	-0.98 ± 0.18
K1R	-1 ± 0.12
K1I	0.021 ± 0.11
K1V	-0.643 ± 0.1
K1L	-0.666 ± 0.31
K1C	-0.286 ± 0.17
K1T	-0.521 ± 0.13
K1G	-0.47 ± 0.073
K1S	-0.672 ± 0.084
K1Y	-0.608 ± 0.17
K1A	-0.671 ± 0.11
K1N	0.11 ± 0.17
K1D	-0.268 ± 0.098
K1M	-0.835 ± 0.25
N8I	-0.408 ± 0.23
N8M	-0.274 ± 0.17
N8G	-0.623 ± 0.064
N8Q	-0.154 ± 0.12
N8L	-0.35 ± 0.06

Variant	abundance fitness
N8A	-0.187 ± 0.081
N8H	-0.373 ± 0.12
N8E	-0.232 ± 0.072
N8W	-0.915 ± 0.16
N8C	-0.342 ± 0.14
N8V	-0.048 ± 0.063
N8S	-0.444 ± 0.085
N8P	-0.541 ± 0.099
N8R	-0.116 ± 0.058
N8D	-0.246 ± 0.068
P4S	0.078 ± 0.079
P4K	0.371 ± 0.079
P4R	-0.059 ± 0.08
P4L	0.102 ± 0.076
P4F	0.755 ± 0.26
P4Y	0.368 ± 0.077
P4D	0.276 ± 0.08
P4C	-0.079 ± 0.13
P4V	0.09 ± 0.07
P4E	0.107 ± 0.069
P4Q	0.136 ± 0.074
P4T	0.329 ± 0.099
P4H	0.093 ± 0.076

Variant	abundance fitness
P4A	0.069 ± 0.075
P4M	0.392 ± 0.14
P4N	0.463 ± 0.12
P4G	-0.229 ± 0.067
L5W	-0.984 ± 0.13
L5C	-0.044 ± 0.1
L5K	-0.514 ± 0.19
L5H	-0.311 ± 0.33
L5T	-0.302 ± 0.087
L5I	0.011 ± 0.18
L5R	-0.448 ± 0.062
L5Y	-0.204 ± 0.18
L5M	-0.139 ± 0.15
L5E	-0.13 ± 0.11
L5F	-0.307 ± 0.16
L5D	-0.245 ± 0.12
L5Q	-0.131 ± 0.1
L5S	-0.341 ± 0.12
L5N	-0.276 ± 0.32
L5G	-0.283 ± 0.059

— the Human Domainome abundance scans (Beltran et al. 2025)
